In patent publication US20120201809A1 (COVX TECHNOLOGIES IRELAND, published 2012):
Where two headings read alike, the source gives them in different places.

Columns and labels:
[1] = biological target: T1, human IGF1R on cells (mouse 3T3 cells engineered to express human IGF1R); human colon adenocarcinoma Colo205 … (human, UniProt P08069 31-1367); assay: cell-based or functional assay
[2] = biological target: T1, human IGF1R on cells (mouse 3T3 cells …); assay: cell-based or functional assay; remark: listed apart in the source

B1: 2.12.1.fx antibody (anti-IGF1R antibody) (antibody, human IgG2, kappa, V domains shown)
VH: QVQLVESGGGLVKPGGSLRLSCAASGFTFSDYYMSWIRQAPGKGLEWVSYISSSGSTRDYADSVKGRFTISRDNAKNSLYLQMNSLRAEDTAVYYCVRDGVETTFYYYYYGMDVWGQGTTVTVSS
VL: DIQMTQSPSSLSASVGDRVTITCRASQDIRRDLGWYQQKPGKAPKRLIYAASRLQSGVPSRFSGSGSGTEFTLTISSLQPEDFATYYCLQHNNYPRTFGQGTKLVIKR
% IGF1R downregulated [1]: 48% | % IGF1R downregulated [2]: 36%
